From patent US20210198366A1 (NGM BIOPHARMACEUTICALS, published 2021)
Values belong to the binder of their own block, whether it stands above or below them.

B1: soluble human B7-H7-Fc fusion protein (extracellular region of human B7-H7, aa 23-344, and a human Fc sequence) (Fc fusion, not shown: a dimerising Fc or GST)
chain: IFPLAFFIYVPMNEQIVIGRLDEDIILPSSFERGSEVVIHWKYQDSYKVHSYYKGSDHLESQDPRYANRTSLFYNEIQNGNASLFFRRVSLLDEGIYTCYVGTAIQVITNKVVLKVGVFLTPVMKYEKRNTNSFLICSVLSVYPRPIITWKMDNTPISENNMEETGSLDSFSINSPLNITGSNSSYECTIENSLLKQTWTGRWTMKDGLHKMQSEHVSLSCQPVNDYFSPNQDFKVTWSRMKSGTFSVLAYYLSSSQNTIINESRFSWNKELINQSDFSMNLMDLNLSDSGEYLCNISSDEYTLLTIHTVHVEPSQETASHN
notes: also called hB7-H7-Fc; soluble B7-H7

Columns and labels:
[1] = molecular target: T1, human KIR3DL3 expressed on the cell surface (human, UniProt Q8N743 26-410); assay: cell-based fluorescence assay (CellInsight): soluble B7-H7-Fc titrated on HEK-293T cells transfected with KIR3DL3, Alexa Fluor 488 anti-human Fc detection; soluble B7-H7-Fc on KIR3DL3-transfected cells
T1 construct: also called cells expressing human KIR3DL3
Protocol: (§1) The molecule CD28H has previously been identified as a receptor of B7-H7 (Zhu et al., 2013, Nature Communications, ncomms3043; Zhu et al. refer to B7-H7 as “B7-H5”). Studies by the inventors have identified KIR3DL3 as a second receptor for B7-H7. HEK-293T cells were transiently transfected with a KIR3DL3 construct. 40,000 cells were aliquoted into each well of a 384-well plate and were transfected with 200 ng of plasmid DNA encoding KIR3DL3 using Lipofectamine™ 2000 (ThermoFisher Scientific). After 48 hours, soluble B7-H7-Fc (serially diluted from 10 to 0.16 pg/ml) was added to the wells and plates were incubated from one hour at room temperature. An Alexa Fluor® 488-labeled anti-human Fc secondary antibody was added to the wells and plates were incubated for one hour at room temperature. Cells were washed with HBSS and fixed for 15 minutes with 7.4% formalin in PBS. Cells were washed with PBS and the fluorescence signals were detected using a CellInsight™ platform (ThermoFisher Scientific). A similar experiment was conducted with cells transiently transfected with a B7-H7 construct and soluble biotinylated KIR3DF3 ECD. An Alexa Fluor® 488-labeled streptavidin was used for detection.

[2] = molecular target: T2, human B7-H7 expressed on the cell surface (human, UniProt Q9UM44 23-414); assay: cell-based fluorescence assay (CellInsight): soluble biotinylated KIR3DL3 ECD on cells transfected with B7-H7, Alexa Fluor 488 streptavidin detection; soluble biotinylated KIR3DL3 ECD on B7-H7-transfected cells
T2 construct: also called hB7-H7; HHLA2
T2 sequence: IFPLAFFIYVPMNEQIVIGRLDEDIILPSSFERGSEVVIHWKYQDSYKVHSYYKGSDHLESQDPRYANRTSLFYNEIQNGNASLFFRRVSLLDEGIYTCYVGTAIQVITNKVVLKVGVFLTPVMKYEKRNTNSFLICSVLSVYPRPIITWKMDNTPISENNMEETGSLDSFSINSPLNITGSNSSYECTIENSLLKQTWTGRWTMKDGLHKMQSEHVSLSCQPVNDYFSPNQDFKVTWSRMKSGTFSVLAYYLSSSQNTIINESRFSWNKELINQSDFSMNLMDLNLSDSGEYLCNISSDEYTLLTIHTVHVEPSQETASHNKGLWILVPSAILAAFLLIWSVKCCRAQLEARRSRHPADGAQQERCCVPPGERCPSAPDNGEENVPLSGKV
Protocol: as §1

[3] = molecular target: T3, human B7-H7 (soluble analyte in SPR) (human, UniProt Q9UM44 23-344, limits assumed); assay: SPR (Biacore)
T3 sequence: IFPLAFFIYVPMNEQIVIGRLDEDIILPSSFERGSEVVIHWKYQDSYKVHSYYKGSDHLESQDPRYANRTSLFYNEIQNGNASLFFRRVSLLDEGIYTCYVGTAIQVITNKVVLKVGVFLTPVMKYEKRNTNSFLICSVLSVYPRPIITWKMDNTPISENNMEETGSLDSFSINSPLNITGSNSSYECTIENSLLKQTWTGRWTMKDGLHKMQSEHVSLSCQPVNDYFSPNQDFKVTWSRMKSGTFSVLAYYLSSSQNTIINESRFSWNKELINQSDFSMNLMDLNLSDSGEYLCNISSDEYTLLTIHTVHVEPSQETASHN
Protocol: (§2) The binding affinities of exemplary anti-B7-H7 antibodies to human B7-H7 and cyno B7-H7 were measured using SPR technology (Biacore system, GE Healthcare Life Sciences). Briefly, anti-Fc antibody (Sigma-Aldrich) was immobilized on all four flow cells of a CM5 chip using amine coupling reagents (GE Healthcare LifeSciences). Exemplary antibodies were captured on flow cells 2, 3, and 4 using flow cell 1 as a reference. Human B7-H7 or cyno B7-H7 (samples ranging from 0.62-40 nM) were injected at a flow rate of 50 μL/min at 37° C. Kinetic data were collected over time and fit using the simultaneous global fit equation to yield affinity constants (KD values) for each antibody.
The binding affinity of Hz2D7 to human B7-H7 and cyno B7-H7 was determined using SPR technology (Biacore system) as described herein and compared with the binding affinity of the parental antibody and with a chimeric 2D7 antibody comprising the murine heavy chain and light chain variable regions of 2D7 and a human Fc region.

[4] = molecular target: B1; assay: FACS competition: antibody titrated against soluble hB7-H7-Fc binding to HEK-293 cells expressing human CD28H
Protocol: (§3) Exemplary anti-B7-H7 antibodies identified by ELISA and FACS were tested for their ability to block binding of soluble B7-H7 to receptors KIR3DL3 or CD28H in a FACS assay. HEK-293 cells were transiently transfected with a construct encoding (i) a membrane-bound KIR3DL3 protein or (ii) a membrane-bound CD28H protein. After 48 hours, transfected cells were suspended in ice cold PBS containing 1% FBS and 0.1% sodium azide and incubated on ice in the presence of […]/ml of soluble human B7-H7-Fc protein and antibodies 2D7, 1D3, 28F3, 16D5, 2F10, 5F7, 5B10, 5C9, or 3H6 (serially diluted from […] to 4.6 ng/ml). A second incubation with an anti-human Fc secondary antibody was performed to detect cells bound by the soluble B7-H7-Fc. The cells were analyzed on a BD FACSCalibur instrument (BD Biosciences) and the data was processed using FlowJo software. Calculated IC50s are shown Table 12.

[5] = molecular target: T3, human B7-H7 (soluble analyte in SPR); assay: SPR (Biacore), antibody captured by anti-Fc on CM5 chip, B7-H7 injected, 37 C
Protocol: as §2

[6] = molecular target: T2, human B7-H7 expressed on the cell …; assay: cell-based or functional assay
[7] = molecular target: B1; assay: FACS competition: antibody titrated against soluble hB7-H7-Fc binding to HEK-293 cells expressing human KIR3DL3
Protocol: as §3

Binder: B1
Kd [1]: 15 nM

Kd [2]: 192 nM
B2: soluble biotinylated KIR3DL3 ECD (receptor)
chain: QDKPFLSAWPGTVVSEGQHVTLQCRSRLGFNEFSLSKEDGMPVPELYNRIFRNSFLMGPVTPAHAGTYRCCSSHPHSPTGWSAPSNPVVIMVTGVHRKPSLLAHPGPLVKSGETVILQCWSDVRFERFLLHREGITEDPLRLVGQLHDAGSQVNYSMGPMTPALAGTYRCFGSVTHLPYELSAPSDPLDIVVVGLYGKPSLSAQPGPTVQAGENVTLSCSSRSLFDIYHLSREAEAGELRLTAVLRVNGTFQANFPLGPVTHGGNYRCFGSFRALPHAWSDPSDPLPVSVTGNSRHL
modifications: biotinylated (site not stated)
notes: also called soluble biotinylated KIR3DF3 ECD (so in the source); soluble KIR3DL3

Kd [3]: < 0.1 nM
koff [3]: 1e-05 s⁻¹
IC50 [4]: 2.1 nM
Kd [5]: < 0.1 nM
IC50 [7]: 2 nM
B3: anti-B7-H7 antibody 2D7 (antibody, V domains shown)
VH: EVQLQQSGPELVKPGASVKISCKTSGYTFTEYTMHWVKQSHGKSLEWIGGINPNNYGAPYNQKFKGKATLTVDKSSNTAYMELRSLTSEDSAIYYCASGGYYFDYWGQGTTLTVSS
VL: DIVMTQSHKFMSTSFGDRVSITCKASQDVGTAVAWYQQKLGQSPKLLISWAFTRHTGVPDRFTGSGSGTDYTLTISSLQAEDLALYYCQQHYDTPFTFGSGTKLEIK
notes: Parental mouse hybridoma antibody raised against human B7-H7-Fc
Induction of NK-92 cytotoxicity EC50 [6]: 1 nM
